± gives the uncertainty stated by the source.

This is an account of results in the Human Domainome abundance scans (Beltran et al. 2025).

The chains are these.
B1: Zinc finger protein ZIC 2, residues 250 to 295; numbered along this chain, O95409 (parent)
chain: QCIKQELICKWIDPEQLSNPKKSCNKTFSTMHELVTHVSVEHVGGP

In the data set the parent is B1. The data set is described as follows: abundance fitness (aPCA) (normalised: wild type 0, dead -1); higher = more abundant; growth selection in yeast, the domain comes from the species named. The following applies: Homo sapiens.
QCIKQELICKWIDPEQLSNPPKSCNKTFSTMHELVTHVSVEHVGGP [K21P]: the abundance fitness was found to be 0.028 ± 0.1.

In the case of QCIKQELICKWIDPEQLSNPSKSCNKTFSTMHELVTHVSVEHVGGP [K21S], the abundance fitness was -0.178 ± 0.09.

Consider QCIKQELIWKWIDPEQLSNPKKSCNKTFSTMHELVTHVSVEHVGGP [C9W], for which the abundance fitness is -1.03 ± 0.11.

As for QCIKQELICKWIDPEQLSNPKKSCNKTFSTMHELVTHVSVEQVGGP [H42Q], the abundance fitness is -0.909 ± 0.13.

With QCIKQELICKWIDPEQLSNPKKSCNKTFSTMHELVTHVSVEIVGGP [H42I], the abundance fitness is -0.862 ± 0.12.

Take QCIKQELICKWIDPEQLSNPKKSCNKTFSTMHELVTHVSVEPVGGP [H42P]: the abundance fitness is -1.13 ± 0.14.

In the case of QCIKQELICKWIDPEQLSNPKKSCNKTFSTMHELVTHVSVEGVGGP [H42G], the abundance fitness was -0.661 ± 0.091.

QCIKQELICKWIDPEQLSNPKKSCNKTFSTMHELVTHVSVEHVGYP [G45Y]: the abundance fitness was -0.648 ± 0.13.

QCIKQELICKWIDPEQLSNPKKSCNKTFSTMHELVTHVSVEHVGAP [G45A]: the abundance fitness is 0.035 ± 0.091.

On to QCIKQELICKWIDPEQLSNPKKSCNKTFSTMHELVTHVSVEHVGPP [G45P], for which the abundance fitness was -0.195 ± 0.16.

Regarding QCIKQELICKWIDPEQLSNPKKSCNKTFSTMHELVTHVVVEHVGGP [S39V], the abundance fitness was -0.357 ± 0.091.

Regarding QCIKQELICKWIDPEQLSNPKKSCNKTFSTMHELVTHVMVEHVGGP [S39M], the abundance fitness is -0.274 ± 0.11.

As to QCIKQELTCKWIDPEQLSNPKKSCNKTFSTMHELVTHVSVEHVGGP [I8T], the abundance fitness was found to be 0.041 ± 0.1.

With QCIKQELQCKWIDPEQLSNPKKSCNKTFSTMHELVTHVSVEHVGGP [I8Q], the abundance fitness came to 0.171 ± 0.1.

As for QCIKQELKCKWIDPEQLSNPKKSCNKTFSTMHELVTHVSVEHVGGP [I8K], the abundance fitness stood at 0.4 ± 0.11.

As for QCIKQELNCKWIDPEQLSNPKKSCNKTFSTMHELVTHVSVEHVGGP [I8N], the abundance fitness worked out at 0.586 ± 0.15.

As to QCIKQELICKWIDPEQLSNPKKSCNKTFLTMHELVTHVSVEHVGGP [S29L], the abundance fitness is 0.07 ± 0.092.

With QCIKQELICKWIDPEQLSNPKKSCNKTFPTMHELVTHVSVEHVGGP [S29P], the abundance fitness amounted to 0.209 ± 0.1.

QCIKQELICKWIDPEQLSNPKKSCNKTFCTMHELVTHVSVEHVGGP [S29C]: the abundance fitness was -0.337 ± 0.094.

For the variant QCIKQELICKWIDPEQLSNPKKSCNKTFSTMHELVTEVSVEHVGGP [H37E], the abundance fitness was -0.611 ± 0.15.

QCIKQELICKWIDPEQLSNPKKQCNKTFSTMHELVTHVSVEHVGGP [S23Q]: the abundance fitness was 0.226 ± 0.1.

With QNIKQELICKWIDPEQLSNPKKSCNKTFSTMHELVTHVSVEHVGGP [C2N], the abundance fitness is -0.176 ± 0.16.

With QFIKQELICKWIDPEQLSNPKKSCNKTFSTMHELVTHVSVEHVGGP [C2F], the abundance fitness was -0.182 ± 0.12.

On to QCIKQELICKWIDPEQLSNPKKSCNKTFSTMHELGTHVSVEHVGGP [V35G], for which the abundance fitness is 0.118 ± 0.083.

On to QCIKQELICKWIDPEQLSNPKKSCNKTFSTMHELSTHVSVEHVGGP [V35S], for which the abundance fitness was determined as 0.5 ± 0.086.

Take QCIKQELICKWIDPEQLSNPKKSCKKTFSTMHELVTHVSVEHVGGP [N25K]: the abundance fitness amounted to 0.044 ± 0.11.

In the case of QCIKQELICKWIDPEQLSNPKKSCDKTFSTMHELVTHVSVEHVGGP [N25D], the abundance fitness was -0.047 ± 0.11.

For QCIKQELICKWIDPEQLSNPKKSCMKTFSTMHELVTHVSVEHVGGP [N25M], the abundance fitness was -0.019 ± 0.1.

As to QCIKQELICKWIDPEQLSNPKKSCHKTFSTMHELVTHVSVEHVGGP [N25H], the abundance fitness amounted to 0.183 ± 0.12.

As to QCIKPELICKWIDPEQLSNPKKSCNKTFSTMHELVTHVSVEHVGGP [Q5P], the abundance fitness came out at 0.037 ± 0.087.

With QCIKKELICKWIDPEQLSNPKKSCNKTFSTMHELVTHVSVEHVGGP [Q5K], the abundance fitness is 0.05 ± 0.11.

As to ACIKQELICKWIDPEQLSNPKKSCNKTFSTMHELVTHVSVEHVGGP [Q1A], the abundance fitness turned out to be 0.373 ± 0.31.

Turning to KCIKQELICKWIDPEQLSNPKKSCNKTFSTMHELVTHVSVEHVGGP [Q1K], the abundance fitness is -0.455 ± 0.25.

Turning to QCIKQELICKWIDPEQLSNPKKSCNKTFSTMHENVTHVSVEHVGGP [L34N], the abundance fitness is -0.733 ± 0.15.

With QCIKQELICKWIDPEQLSNPKKSCNKTFSTMHELVTHVSVYHVGGP [E41Y], the abundance fitness was -0.226 ± 0.12.

As to QCIKQELICKWIDPEQLSNPKKSCNKTFSTMHELVTHVSVKHVGGP [E41K], the abundance fitness was -0.269 ± 0.11.

Regarding QCIKQELICKWIDPEQLSNPKKSCNKTFSTMHELVTHVSVQHVGGP [E41Q], the abundance fitness was 0.084 ± 0.098.

For the variant QCIKQELICKWIDPEQLSNPKKSCNKTFSTMHELVTHVSVMHVGGP [E41M], the abundance fitness was -0.338 ± 0.1.

Take QCIKQELICKWIDPEQLSNPKKSCNKTFSTMHELVTHVSVVHVGGP [E41V]: the abundance fitness was -0.125 ± 0.086.

As for QCIKQELICHWIDPEQLSNPKKSCNKTFSTMHELVTHVSVEHVGGP [K10H], the abundance fitness was 0.236 ± 0.11.

In the case of QCIKQELICKWIDPEQLSNPKKSCNKTFSTMHELVTHVSVEHKGGP [V43K], the abundance fitness came out at 0.088 ± 0.11.

As to QCIKQELICKWIDPEQLSNPKKSCNKTFSTMHELVTHVSVEHMGGP [V43M], the abundance fitness was -0.126 ± 0.1.

As to QCIKQELICKWIDPEQLSNPKKSCNKTFSTMHELVTHVSVEHEGGP [V43E], the abundance fitness amounted to 0.587 ± 0.088.

Take QCIKQELICKWIDPEQLSNPKKSCNKTSSTMHELVTHVSVEHVGGP [F28S]: the abundance fitness is -0.887 ± 0.097.

In the case of QCIKQELICKWIDPEQLSNPKKSCNKTQSTMHELVTHVSVEHVGGP [F28Q], the abundance fitness is -0.705 ± 0.12.

Take QCIKQELICKWIDPEQLSNPKKSCNKTASTMHELVTHVSVEHVGGP [F28A]: the abundance fitness was -0.811 ± 0.1.

In the case of QCIKQELICKWIDPEQLSNPKKSCNKTDSTMHELVTHVSVEHVGGP [F28D], the abundance fitness was -0.914 ± 0.15.

With QCIKQELICKWIDPEQLSNPKKSCNKTFSTMHELVTHVSKEHVGGP [V40K], the abundance fitness was -0.122 ± 0.1.

In the case of QCIKQELICKWIDPEQLSNPKKSCNKTFSTMHELVTHVSFEHVGGP [V40F], the abundance fitness was -0.549 ± 0.11.

Take QCIKQELICKWIDPEQLSNPKKSCNKTFSLMHELVTHVSVEHVGGP [T30L]: the abundance fitness was -0.802 ± 0.11.

In the case of QCIKQELICKWIDPEQLSNPKKSCNKTFSYMHELVTHVSVEHVGGP [T30Y], the abundance fitness is -0.96 ± 0.18.

Turning to QCIKQELICKWIDPEQLSNPKSSCNKTFSTMHELVTHVSVEHVGGP [K22S], the abundance fitness is -0.102 ± 0.091.

Regarding QCIKQEEICKWIDPEQLSNPKKSCNKTFSTMHELVTHVSVEHVGGP [L7E], the abundance fitness was 0.17 ± 0.1.

With QCIKQELICKWLDPEQLSNPKKSCNKTFSTMHELVTHVSVEHVGGP [I12L], the abundance fitness is -0.551 ± 0.097.

Regarding QCIKQELICKVIDPEQLSNPKKSCNKTFSTMHELVTHVSVEHVGGP [W11V], the abundance fitness is -0.115 ± 0.095.

Consider QCIKQELICKNIDPEQLSNPKKSCNKTFSTMHELVTHVSVEHVGGP [W11N], for which the abundance fitness is -0.216 ± 0.13.
